Laboratory results: the DeepSol protein solubility set

experiment: soluble on expression in E. coli; label from the status in PepcDB or PDB records

| Sequence | soluble on expression in E. coli |
| --- | --- |
| MGSDKIHHHHHHMTQPFIPEQEYKRTDLHKQYGGNAQSGISNCANYPYIFIFSGVTGKQHGYKDGWENPNVFEYTGEGQMGDMSFTRGNLALRDHIDNGKQVFLFQYQRSGIVKYICELEFYDTDYFPTHDSSKQLRVGIRFFLKRKGAILPSVKELNQSTDFLAAESIPFYGIDSIKETSRKGEVNLRVGQGAYRKSIIHHWQYKCAVTGFDKLNLLNASHIHPWKDATDKERLDVNNGILLSPTYDALFDKHLISFENDGKIILSDTIHFSAYQKIGVTGKEKIKELNSNSILYIEKHRHLLLKY | not soluble |
| MIETPYYLIDKAKLTRNMERIAHVREKSGAKALLALKCFATWSVFDLMRDYMDGTTSSSLFEVRLGRERFGKETHAYSVAYGDNEIDEVVSHADKIIFNSISQLERFADKAAGIARGLRLNPQVSSSSFDLADPARPFSRLGEWDVPKVERVMDRINGFMIHNNCENKDFGLFDRMLGEIEERFGALIARVDWVSLGGGIHFTGDDYPVDAFSARLRAFSDRYGVQIYLEPGEASITKSTTLEVTVLDTLYNGKNLAIVDSSIEAHMLDLLIYRETAKVLPNEGSHSYMICGKSCLAGDVFGEFRFAEELKVGDRISFQDAAGYTMVKKNWFNGVKMPAIAIRELDGSVRTVREFTYADYEQSLS | soluble |
| MAHHHHHHMPSAPTCQHGSYHQCECYGHNTQLPNYRHDISNPRTLQGYYAPNGGCPCPATCGAEKHGLYCSDRGADASAMPKLTFRAADGPHTVHSASDVDGNGRDPATSIRTAFPNSRNYGGTVAQRGPTTLSTRAQLSASRKARAEAKREERAQDRKNFLRGVLRDEMLARMDAEGKRAALEADTGLMGTHHGEEYEANQRAAGSMRGGLDSTSRDPDTVLTLGEQYREIMDELEYVADQPVGSKYNIIRLHYLVEEEDRLNRLRLQERIRKTAEAMQSKK | not soluble |
| MGSDKIHHHHHHVPVRDGLQPLFVAAPLHAGGRPAAFGLKDRVMADNTTSTALLDLRGVRKTFLTPDRRERTVLEGVDFKLEEGEIVALLGKSGSGKSTLLRIMAGLIKANGGEVKYRGHLMTGPAKGISMVFQSFALFPWLTVEENVELGLEAAGIPKAEREDRANEAIDLIGLGGYESAYPKELSGGMRQRVGFARALVMRPDVLLLDEPFSALDVLTSETLREDLLELWDERKIPTKGILLVSHNIEEAVSMADRVLVFSSDPGRVRAEIRVNLPRPRDTESAAFRQIVDEVYTLMTANVRGGGVGATEQLTLGYRLPDTTPGKMAGLLETVAEAPFNGRADLPQLAEETELEDDQLFHLFEGLRVLGLARIAAGDIFVTHSGQAFVEADDAHRKELFAEALVKNIPLAAHIRRVLDERKDHRAPEDRFLQELQDYLTDDEAERVLETTITWGRYAEIFDYDYNAGVLMLPEEVVEELEAGEETRDDPGARE | not soluble |
| GPGSMLRGCAAACGQCRESASAVYGQALWLLLRPWTRSPSLPSSTHARLGLRRALGTVTSSLSSSSSCATVHHPTRWVSRKSIEEQLPSNIKVDPNASATAGRENEGLGRDAFSSGINGIYGNRAESAMRGMLGPQGQADARESRAVPILGRASVQGTKYTLDRSTVFEHWRFHCSEPVGWHLSKLGSTTCKMVNDVNEAVESLQLQIIKGCNVFEIDGAASEVHQSIARGIYEALQAFELDRSGFVMVARCGLIKQPRFQDEITRVEASNTAAVRNRIIPIFERYKASSLPSTSLKSGFRISELDDSQLARLNLRRVDRTTAAGLSPDWLDAFFTNVAYNTRLECIDVLLLEGMHTLFDGRPDEHVDDDILQLFVYLERQVKQGVLQYYGVCSPHLAPPVPRNYPEMPPDALVPDKYRTPPKEPATINLYRLMALAERAGGADHHFRFVQYPFNLTQHQAISSPLPYDANHTLATLCKALGLTALGYSPLEAPNLMQLPERYHNFPMEADLKALRMNFFTVCERSVLKEMEIKDTIDKGPDTLPPLEHLFVASVYLAAQRQFTNLFFFTDWANYYMTPRFRRAMTRFKEASSADLKEWAKQYEQLISDLLRMRQRMFQHKHGKQAGLVNMAIDYVSPTLARCPMLNQKAINFATYGCNVLLCGFHVSRYFHEATELNPAKDGNLPIPEEELLALCSAETVSYANVSPPHPYMLEPLMGEGKISKQPSKGAAYLVRIDPQNPKFPDIPEELQTGDSDGEAPVSADGATAALHKDEAPEKAVKE | not soluble |
| MSLGKATGFMEYDRIPSPGRDPKSRTRDWNEYSLPMPVADLTLQAARCMDCGVPFCSVGMEIKNGVSGCPLHNLIPEWNDAVYRGDWYEALQLLLKTNNFPEFTGRICPAPCEGGCTVAISEPAVGIKSIEKAIIDRGFEEGWIKPQPPKKRTGKRIAVIGSGPAGLACADQLNKAGHSVTVIEKSDRIGGLLMYGIPTMKLEKEQVTRRVNLMAEEGIEFVTGVAAGTDVTFAELRAEYDSIVLATGAGNARDIPLAGRDAAGIHFAVPYLTQSTRDNLDNGGVQTLSAKDKNVVIIGGGDTGADCVATALRQGAKSIYQFGIQDKLPELRNGENPWPQYPRVFKMDYAHEEAEAVYGRDPREYLINTTSFEKDAAGNLVGLHTVEVTEDKETRQYTPVEGSEKYFEVDMVLIAIGFSGTTEDIFTNFGVGKTERHTIDAAKGFYRTSEEGVFACGDARHGQSLVVTAIAEGREAAREVDFYLMGETFLEGHHHHHH | soluble |
| GMAEDQTVLAIDIGGSHVKIGLSTDGEERKVESGKTMTGPEMVAAVTAMAKDMTYDVIAMGYPGPVVHNKPLREPVNLGEGWVGYDYEGAFGRPVRIVNDALMQAIGSYNGGRMLFLGLGTGLGAAMIVENVAQPMEIAHLPYRKGKTYEHYVSEAYREKKGNAKWQKRVQDVVERLSAALEPDEVVIGGGNVERLENLPPKCRRGDNAMAFEGGFRLWKNADLIV | soluble |
| SSLCEDMLLCNYRKCRIKLSGYAWVTACSHIFCDQHGSGEFSRSPAICPACNSTLSGKLDIVRTELSPSEEYKAMVLAGLRPEIVLDISSRALAFWTYQVHQERLYQEYNFSKAEGHLKQMEKIYTQQIQSKDVELTSMKGEVTSMKKVLEEYKKKFSDISEKLMERNRQYQKLQGLYDSLRLRNITIANHEGTLEPSMIAQSGVLGFPLGNNSKFPLDNTPVRNRGDGDGDFQFRPFFAGSPTAPEPSNSFFSFVSPSRELEQQQVSSRAFKVKRI | not soluble |
| MSHKLPSATDKYYFEVLRNEEKSEMLKFLLESFRVDEPLNRASKISCEEIEKCLDGALDRALKTESSILARSQDTHEIVGCMLNSVWRRDESLCTPGEEDKDFEFHTIRKEVAMVAEILNELHESFWSLRPDQDVVLHFEISSVSVNHRRQGLASKFMNWTENKKFLDTFGATGIATEASSLANQALLAKRGYSTIATTLLDTKVDPDTGKPILVCDDGTDRVNLMFKTF | not soluble |
| MPVIKDAVCSLCGSLCDDITVTVEDNKITKIENACILGHSKFVGMFEHDRIETPMVRKDGELVPVSYEEAIEAAAKILVNSRRTLSYGWCSTSCEAVSGAIQLAEETGSIIDSTANVCHGPTALAAQEKGSPSASLGEIKNRADVIVFWGCNPVHAHPRHMSRYSSFSKGFFTEKGRKGRKMVVIDVRKTDTAKIADKYVEIEQGSDLLLVTALRSIVNGHEDVVPETVAGVPKAEVLELAETLKNAKFTCIFFGMGVTQSRSKYKNGDAVSSLISDLNQHTKAVMIGMRGHYNVTGFGQVATWETGFPMAIDFSRGYPYYNPGETGANDLLVREEPDAAIIAAADAGAHFPQKAVRHLARIPVIQIDPYANPTTEIADVVIPAAVVGIEAEGTAYRMDAISLRMKKLIDTEFKTDEEIVKDLTAKVREMKRGV | not soluble |
| MGSDKIHHHHHHMTEATYYFIGIKGSGMSALALVLHDLGHQVLGSDITQYTFTQKGLAAAGIKMLPFDPANLKPGYTVIAGNSFTDDHPEIKRAKELGLTIYRYHEFLGKLIEGYTSIGVAGAHGKTSTTGLLAHTLSGVAKTSYLIGDGTGKGIPDSKFFVFEADEYRRHFLAYHPDYMIMTNIDFDHPDYYTGFEDVYDAFETEANQVKKAIVAWGDDPWLRKLKAKVPVYYYGISDRDDFQARNVDRDTKGSSFDAYFHDQLIGHFFVPLFGEHSVLNALAVVAVAHMEKLDAKLIARELGNFSGVKRRFAEKDLKDMIIVDDYAHHPNEIKATLDAARQKYPDKAIIAVFQPHTFSRTQAYEPQYVQVLSQADQTFLTPIFSSAREKTGKIRSEDITAQIKGAAVIHQEDMKPLLQYHNAVVVFMGAGDIQKYEKAYETILAEE | not soluble |
| MSIAIIIGTHGAAAEQLLKTAEMILGEQSNVAYIDFVPGENAETLIEKYNDRLTGLDTSKGVLFLVDTWGGSPFNAASRIAIDKENYEVVTGVNIPMLAETFMARDDEPSFAELVAVAVETGREGVKALKAPDVKSDKPETQPAAPVPTAKAPAVALGPNDHMKIGLARIDDRLIHGQVATRWTKETNVNRIIVVSDEVAADKMRKTLLTQVAPPGVTAHVVDVEKAIRVYNNPKYANDRVMLLFTNPTDVVRLVEGGVDIKSVNIGGMAFRQGKTQVNNAVSIDEKDIEAFNKLNARGIELEVRKVSSDSRLKMMDLISKLNK | not soluble |
| MGSDKIHHHHHHMKLAKKYYAVRKGRVPGIYKTWKEAEEQVKGFPGAEYKSFERLEDAKAYMEGKNECICPELDTETMIAYVDGSYDEVCGSGIVLCYRGKKEEYYFWTNIEEFKDSRNITGEIMAALFAMDYALKKGARKLVLRYDLEGLEKWATEEYRTNKLVTKVYRHYYRKFCQMGLKVVFEKIKSHSGNFCNDEADSLAKKASKKESNVEWMPEDFESIIRTLTKKGGCL | not soluble |
| SFRRKLTALEYHNPTGFDCKDETEFRNFIVWLEDQKIRHYKIEDRGNLRNIPSSDWPKYFEKYLQDVNCPFSVQERQETVDWLLGLAVRFEYGDNVEKYRNCKPVTETNDVQKSADPLINLDSNNPDFKAGVLALANLLKIQRHDDYLVMLKAIKILVQERLTPDAIAKASQAKEGLPVTLDKHILGFDTGDATLNEAAQVLRLLHIEELRELQTKINEAIVAVQAIIADPKTDHRLGKVGR | soluble |
| GTTKHSKLLILGSGPAGYTAAVYAARANLQPVLITGMEKGGQLTTTTEVENWPGDPNDLTGPLLMERMHEHATKFETEIIFDHINKVDLQNRPFRLNGDNGEYTCDALIIATGASARYLGLPSEEAFKGRGVSACATCDGFFYRNQKVAVIGGGNTAVEEALYLSNIASEVHLIHRRDGFRAEKILIKRLMDKVENGNIILHTNRTLEEVTGDQMGVTGVRLRDTQNSDNIESLDVAGLFVAIGHSPNTAIFEGQLELENGYIKVQSGIHGNATQTSIPGVFAAGDVMDHIYRQAITSAGTGCMAALDAERYLDGLADAK | soluble |
| AEKANQVSNIKTQLAMEYMRGQDYRQATASIEDALKSDPKNELAWLVRAEIYQYLKVNDKAQESFRQALSIKPDSAEINNNYGWFLCGRLNRPAESMAYFDKALADPTYPTPYIANLNKGICSAKQGQFGLAEAYLKRSLAAQPQFPPAFKELARTKMLAGQLGDADYYFKKYQSRVEVLQADDLLLGWKIAKALGNAQAAYEYEAQLQANFPYSEELQTVLTGQ | soluble |
| MDWGMQSRLSWIFNPKTGKTVMLAFDHGYFQGPTIGLERIDINIAPLFEHADVLMCTRGILRSVVPPATNKPVVLRASGANSILAELSNEAVALSMDDAVRLNSCAVAAQVYIGSEYEHQSIKNIIQLVDAGMKVGMPTMAVTGVGKDMVRDQRYFSLATRIAAEMGAQIIKTYYVEKGFERIVAGCPVPIVIAGGKKLPERETLEMCWQAIDQGASGVDMGRNIFQSDHPVAMMKAVQAVVHHNETADRAYELYLSEKQ | not soluble |
| MEERDRVKITDRLARPLRDLRLSVIDQCNFRCVYCMPAEVFGPNFRFLAEDQLLTVEEMALLAECFVELGVEKIRLTGGEPLLRRDLDALIERLSALPGLRDIGLTTNGVHLVKWAQRLKAAGLKRVNVSLDALDDDIFRKMNGIGVGAAPVLKGIEAALAAGLGVKVNMVVKKGWNDSQIVPMAAYFKDLGIPLRLIEFMDVGTTNGWDYSHVVTKKEMYEQINAMHPLEPVEKEYFGEVASRYRYAGTNVEVGFIASVTETFCQSCTRARISADGKLYTCLFASKGVSLKDKLRAGEGKEEIKALITTVWNRRTDRYSEERTAETAKQRPKIEMSYIGG | not soluble |
